In patent US10618964B2, “Nanobody against IL-6R” (Ablynx N.V., dated 2020):

What was measured:
IL-6R on TF-1 cells = IL-6R on TF-1 cells (Homo sapiens (Human), UniProt P08887); assay: cell-based or functional assay
[1] = molecular target: T1, soluble IL-6R in cynomolgous plasma (cynomolgus monkey, UniProt A0A2K5WN54); assay: plasma potency ELISA, purified Nanobody; competitor IL-6; cyno plasma
Protocol: (§1) In this ELISA, plasma was used as a source of native soluble IL-6R. By this assay, we aimed to confirm the alphascreen results and to get a view on the cross-reactivity of the clones towards cynomolgous IL-6R. Human plasma (ELISA 1 and ELISA 3) or cynomolgous plasma (ELISA 2) were pre-incubated with a dilution of the periplasmic extract of the clones together with human IL-6 (50 ng/mL). Subsequently, plasma soluble IL-6R was captured on a B-N12 coated plate and bound IL-6 was detected using anti-IL-6 antibody BAF206 and streptavidin-HRP (ELISA 1 and ELISA 2). The ELISA signal dropped when the Nanobody clone could compete with IL-6 for binding to soluble IL-6R. ELISA 3 was a parallel ELISA in which the detection antibody was replaced by anti-IL-6R antibody BAF227 to exclude false positive competitors, which actually compete with B-N12 (e.g. family 2). Depicted in Table C-5 is the ratio of the OD450 value of the test sample versus the blank OD450 (mock sample). Clones were ordered based on ELISA 1 data.
(§2) A potency ELISA was done with the purified Nanobodies as described in Example 9. Here, different dilutions of each purified Nanobody were incubated with human (ELISA1) and cynomolgous plasma (ELISA2). IC50 values are depicted in Table C-9.

[2] = molecular target: T2, native soluble IL-6R in human plasma (human, UniProt P08887); assay: ELISA 3, periplasmic extract; competitor BN-12; human plasma
Protocol: as §1

[3] = molecular target: T2, native soluble IL-6R in human plasma; assay: plasma potency ELISA, purified Nanobody; competitor IL-6; human plasma
Protocol: as §1, §2

[4] = molecular target: T1, soluble IL-6R in cynomolgous plasma; assay: ELISA 2, periplasmic extract; competitor IL-6; cyno plasma
Protocol: as §1

[5] = molecular target: T2, native soluble IL-6R in human plasma; assay: ELISA 1, periplasmic extract; competitor IL-6; human plasma
Protocol: as §1

Binder	IC50, IL-6-dependent proliferation of TF-1 cells (3H-thymidine) (IL-6R on TF-1 cells) [nM]	IC50 [1] [nM]	OD450 ratio sample/blank [2]	IC50 [3] [nM]	OD450 ratio sample/blank [4]	OD450 ratio sample/blank [5]
Reference IgG (antibody, V domains shown) VH: QVQLQESGPGLVRPSQTLSLTCTVSGYSITSDHAWSWVRQPPGRGLEWIGYISYSGITTYNPSLKSRVTMLRDTSKNQFSLRLSSVTAADTAVYYCARSLARTTAMDYWGQGSLVTVSS VL: DIQMTQSPSSLSASVGDRVTITCRASQDISSYLNWYQQKPGKAPKLLIYYTSRLHSGVPSRFSGSGSGTDFTFTISSLQPEDIATYYCQQGNTLPYTFGQGTKVEIKR	0.53	–	–	–	–	–
IL6RPMP104B8 (VHH) VHH: EVQLVESGGGLVQAGGSLRLSCAASGFAFDDYAIGWFRQAPGKEREGVSSISSSNGNTYYADSVRGRFTISSDNAKNTVYLQMNSLKPEDTGVYYCAAIWGIFFNEKMPVGAYDYWGQGTQVTVSS	245	252	1.05	7.8	0.735	1.46
IL6RPMP105H10 (VHH) VHH: EVQMVESGGGLVQAGGSLRLSCAASGFAFDDYAIGWFRQAPGKEREGVSSISSSNGNTYYADSVRGRFTISSDNAKNTVYLQMNSLKPEDAGVYYCAAIWGIFFNEKMPVGAYDYWGQGTQVTVSS	–	–	1.02	–	0.679	0.627
IL6RPMP101F2 (VHH) VHH: EVQLVESGGGLVQAGGSLRLSCAASGFAFDDYAIGWFRQAPGKEREGVSSISSSNGNTYYADSVRGRFTISSDNAKNTVYLQMNSLKPEDTGVYYCAAIWGIFFNEKMPVGAYDYWGQGTQVTVSS	–	–	0.972	–	0.811	0.569
IL6RPMP101C3 (VHH) VHH: EVQLVESGGGLVRAGGSLRLSCAASGFAFDDYAIGWFRQAPGKEREGVSSISSSNGNTYYADSVRGRFTISSDNAKNTVYLQMNSLKPEDTGVYYCAAIWGIFFNEKMPVGAYDYWGQGTQVTVSS	–	–	0.975	–	0.801	0.58
IL6RPMP120C1 (VHH) VHH: EVQLVESGGGLVQAGGSLSLSCATSGRTISDDTMAWFRQAPGKEREFVATITFSGARTHYSDSVRDRFTISRDNAKNTVYLQMNSLKSEDTAVYYCAASTKYYSSTYNYIHPAFYDIWGQGTQVTVSS	–	–	1.02	–	0.187	0.567
IL6RPMP120D2 (VHH) VHH: EVQLVESGGGLVQAGGSLSLSCATSGRTISDDTMAWFRQAPGKEREFVATITFSGARTHYSDSVRDRFTISRDNAKNTVYLQMNSLKSEDTAVYYCAASTKYYSSTYNYIHPAFYDIWGQGTQVTVSS	–	–	0.993	–	0.158	0.659
IL6RPMP120A1 (VHH) VHH: EVQLVESGGGLVQAGGSLSLSCATSGRTISDDTMAWFRQAPGKEREFVATITFSGARTHYSDSVRDRFTISRDNAKNTVYLQMNSLKSEDTAVYYCAASTKYYSSTYNYIHPAFYDIWGQGTQVTVSS	–	–	1.01	–	0.198	0.598
IL6RPMP120B2 (VHH) VHH: EVQLVESGGGLVQAGGSLSLSCATSGRTISDDTMAWFRQAPGKEREFVATITFSGARTHYSDSVRDRFTISRDNAKNTVYLQMNSLKSEDTAVYYCAASTKYYSSTYNYIHPAFYDIWGQGTQVTVSS	–	–	1.02	–	0.204	0.645
IL6RPMP107A9 (VHH) VHH: EVQLVESGGGLVQAGGSLRLSCAASGGIFSDMFMGWFRQAPGKSRESVARISPSGNTFYQDSVRGRFTISTDNAKNTVYLQMNNLKPEDTAVYYCAANVGVTGSYEYWGQGTQVTVSS	349	4.7	0.992	3.5	0.0867	1.08
IL6RPMP107G10 (VHH) VHH: EVQLVESGGGLVQAGGSLRLSCAASGSIENINAMGWYRQAPGKQRDFLAIITDGSKTLYADSVKGRFTISNDNAKNTVYLQMNSLKPEDTAVYYCNAYQAGWGDYWGQGTQVTVSS	–	–	1.01	–	0.883	0.523
IL6RPMP107E4 (VHH) VHH: EVQLVESGGGLVQAGGSLRLSCAASGSIDRINAMGWYRQAPGKQRDFLAVITDGDKTLYADSVKGRFTISNDNAKNTVYLQMNSLKPEDTAVYYCNAYQAGWGDYWGQGTQVTVSS	–	–	1.02	–	1.19	0.592
IL6RPMP100G11 (VHH) VHH: EVQLVESGGGLVQAGGSLRLSCAASGRGFSPYTMGWFRQAPGKERVFVAGISWSTGIAHYTDSVKGRFTISRDNAKNTGSLQMNSLKPEDTAVYYCAVVQTTKGNYDYWGQGTQVTVSS	116	–	0.997	–	0.202	1.71
IL6RPMP101A1 (VHH) VHH: EVQLVESGGGTVQAGGSLKLSCAASGRTFTNYAMGWFRQAPGKEREFVAAIAYATHFADSVKGRFTISRGNAKNTVYLQMNSLKPEDTAVYYCAADLSLSKMVSKITSDMDYWGKGTLVTVSS	–	–	0.989	–	0.521	0.508
IL6RPMP106F4 (VHH) VHH: EVQLVESGGGLVQAGGSLRLSCAASGSIFRINAMGWYRQAPGKQRELVAAAISGGSTNYADFVKGRFTISRDNAKNTVYLQMNSLKPGDTAVYYCNALVVSHNYSDYVPFPDDYWGQGTQVTVSS	–	–	1.01	–	1.19	0.557
IL6RPMP101G2 (VHH) VHH: EVQLVESGGGLVQAGGSLRLSCAASGSIFRINAMGWYRQAPGKQRELVAAAISGGSTNYADFVKGRFTISRDNAKNTVYLQMNSLKPEDTAVYYCNALVVSHNYSDYVPFPDDYWGQGTQVTVSS	–	–	0.975	–	1.04	0.597
IL6RPMP105C2 (VHH) VHH: EVQLVESGGGLVQAGGSLRLSCAASGSIFRINAMGWYRQAPGEQRELVAAAISGGSTNYADFVKGRFTISRDNAKNTVYLQMNSLKPEDTAVYYCNALVVSHNYSDYVPFPDDYWGQGTQVTVSS	–	–	0.996	–	1.01	0.577
IL6RPMP106F7 (VHH) VHH: EVQLVESEGGLVQAGGSLRLSCAASGSIFRINAMGWYRQAPGKQRELVAAAISGGSTNYADFVKGRFTISRDNAKNTVYLQMNSLKPEDTAVYYCNALVVSHNYSDYVPFPDDYWGQGTQVTVSS	–	–	1	–	1	0.672
